# Test results reported in paper PMC6486591.
# What was measured:
# [1] = target: YenA2 (Yersinia entomophaga) (UniProt B6A878); experiment: cryo-EM structure; YenTcA pore form inserted into POPC liposomes (1:2 w/w, 3-5 freeze/thaw cycles), single-particle cryo-EM, 11 Å resolution
# [2] = target: YenA2 (Yersinia entomophaga) (UniProt B6A878); experiment: cryo-EM structure; YenTcA soluble pre-pore form, single-particle cryo-EM, 4.4 Å average resolution, C5 symmetry; 0.1 mg/mL in 25 mM Tris, 150 mM NaCl, pH 7.5, with 10 mM NDSB-195
# Chain of YenA2 (B6A878 whole entry): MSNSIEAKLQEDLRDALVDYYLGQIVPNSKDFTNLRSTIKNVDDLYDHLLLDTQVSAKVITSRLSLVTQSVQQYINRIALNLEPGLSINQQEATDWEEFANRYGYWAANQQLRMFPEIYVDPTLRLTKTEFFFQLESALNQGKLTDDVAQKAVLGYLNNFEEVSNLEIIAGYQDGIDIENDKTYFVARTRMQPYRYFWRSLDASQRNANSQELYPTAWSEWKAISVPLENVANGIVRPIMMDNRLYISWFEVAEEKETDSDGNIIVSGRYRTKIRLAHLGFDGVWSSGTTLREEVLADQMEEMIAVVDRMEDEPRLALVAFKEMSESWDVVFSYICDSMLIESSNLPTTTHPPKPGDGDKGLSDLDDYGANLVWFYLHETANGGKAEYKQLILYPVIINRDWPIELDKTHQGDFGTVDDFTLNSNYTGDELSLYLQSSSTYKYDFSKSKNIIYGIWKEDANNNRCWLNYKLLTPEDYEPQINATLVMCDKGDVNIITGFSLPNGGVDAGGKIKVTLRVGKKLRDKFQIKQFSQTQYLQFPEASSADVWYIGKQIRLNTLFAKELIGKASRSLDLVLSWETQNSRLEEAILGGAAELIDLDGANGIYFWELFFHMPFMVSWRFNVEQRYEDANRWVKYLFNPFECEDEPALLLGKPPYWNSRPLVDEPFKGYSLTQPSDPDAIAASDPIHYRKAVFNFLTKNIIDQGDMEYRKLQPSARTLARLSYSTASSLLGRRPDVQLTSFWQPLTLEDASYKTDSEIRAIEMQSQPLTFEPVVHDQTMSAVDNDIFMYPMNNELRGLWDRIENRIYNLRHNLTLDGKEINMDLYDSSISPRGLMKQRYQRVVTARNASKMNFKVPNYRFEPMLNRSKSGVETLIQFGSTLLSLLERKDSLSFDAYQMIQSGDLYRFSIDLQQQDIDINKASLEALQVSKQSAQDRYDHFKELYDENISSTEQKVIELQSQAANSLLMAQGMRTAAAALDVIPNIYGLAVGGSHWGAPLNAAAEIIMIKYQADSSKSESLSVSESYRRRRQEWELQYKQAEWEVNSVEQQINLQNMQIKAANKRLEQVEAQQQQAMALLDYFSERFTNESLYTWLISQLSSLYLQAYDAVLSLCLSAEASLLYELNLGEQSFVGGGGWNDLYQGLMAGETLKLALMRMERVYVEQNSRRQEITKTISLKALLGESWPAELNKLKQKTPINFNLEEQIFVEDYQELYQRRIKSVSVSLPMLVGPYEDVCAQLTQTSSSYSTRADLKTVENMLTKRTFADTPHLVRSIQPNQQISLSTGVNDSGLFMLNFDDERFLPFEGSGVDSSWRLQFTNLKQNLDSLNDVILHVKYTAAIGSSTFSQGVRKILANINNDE
substance,measurement,setting,value
YenA2 (from UniProt B6A878 1-1364) (natural protein),stoichiometry N,[1],5
same,stoichiometry N,[2],5
